By stoichiometry N is commonly meant the number of molecules, sites or subunits per partner or assembly.

The record followed here is paper PMC11964946.

The target of this experiment is Vicia altissima seed lectin (VICALTA) (Vicia altissima). In words: native gel or EMSA; native PAGE on Mini-PROTEAN TGX 4%-20% precast gels (single band at 87 kDa), compared with SDS-PAGE (single band at 38 kDa); purified seed lectin. Background: A gel shift assay detects complexes by their altered migration in electrophoresis.

“Vicia altissima seed lectin (VICALTA) (natural protein)” had a stoichiometry N of 2.
